From article PMC8562477 come the findings set out here.

This data set has as its system T1, MBP-RstA D52A D52A (Pseudomonas fluorescens 2P24), ORF:4a43b447.
T1 sequence: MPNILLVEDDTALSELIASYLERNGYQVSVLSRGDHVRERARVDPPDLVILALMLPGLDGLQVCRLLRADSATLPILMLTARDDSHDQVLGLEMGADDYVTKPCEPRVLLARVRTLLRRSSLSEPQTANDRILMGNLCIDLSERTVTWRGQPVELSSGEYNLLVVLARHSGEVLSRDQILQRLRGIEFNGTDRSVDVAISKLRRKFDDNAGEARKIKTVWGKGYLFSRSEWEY
The data set is described as follows: EMSA. As to conditions: EMSA: 50 mM Tris-HCl pH 7.5, 10 mM MgCl2, 10% glycerol, 0.5 mM EDTA, 50 mM KCl, 3 uM BSA, 50 ng DNA in 20 ul, 30 min room temperature, 6% native PAGE. Background: A gel shift assay detects complexes by their altered migration in electrophoresis.

As to “GGCAATAAACACCTCAATCAGGATGCGTCAGCAATGCGTAAGCATCAGCTGAACAAAATATGAGGCGACGTCTCTTGAAACGCGTCTCCGATCTATACAGGCCTTTGTCAGGCTTTTGTAAATCCGGATATTACGCAATTTGGCTGTTTACAAACAACCGTGTACGTAAGTATATTTCTTAGCATCCTACTAATTGAAAAAATGCTCCTTTTTTACCCTTCCACCTTTCGAGTGCGCCAGTTACGCGCCTGGACCCGAGGATTT (double strand) [FAM-emhA promoter]”, the binding entry is “binds more weakly”.

Take “CGGCCTGTGTGATTACACAATTTCACAGAGCGCCTACAAAGCTTCACCCCTGTCATGGGCCTGGATCCCTACCATGAGCGGCTCAATATTGGGGAAGCACC (double strand) [FAM-mexC promoter]”: the binding entry is recorded as “binds more weakly”.
